Target: the molecule itself
Assay: SEC

B1: S. cerevisiae Dmc1 (ScDmc1), N-terminally (His)6-tagged (natural protein, UniProt P25453 1-334, looked up)
chain: MSVTGTEIDSDTAKNILSVDELQNYGINASDLQKLKSGGIYTVNTVLSTTRRHLCKIKGLSEVKVEKIKEAAGKIIQVGFIPATVQLDIRQRVYSLSTGSKQLDSILGGGIMTMSITEVFGEFRCGKTQMSHTLCVTTQLPREMGGGEGKVAYIDTEGTFRPERIKQIAEGYELDPESCLANVSYARALNSEHQMELVEQLGEELSSGDYRLIVVDSIMANFRVDYCGRGELSERQQKLNQHLFKLNRLAEEFNVAVFLTNQVQSDPGASALFASADGRKPIGGHVLAHASATRILLRKGRGDERVAKLQDSPDMPEKECVYVIGEKGITDSSD
binding result: binds
